{
  "source": "patent US20150291675A1",
  "about": "(published 2015)",
  "binders": {"B1": {"name": "lipocalin mutein of SEQ ID NO: 10 (designed binder)", "chain": "QDSTSDLIPAPPLSKVPLQQNFQDNQFHGKWYVVGLAGNEILREDKDPMKMWATIYELKEDRSYNVTIVMFLAKKCEYLFQTFVPGSQPGEFTLGDIKSSPGRTSGLVRVVSTNYNQHAMVFFKVVWQNREVFWITLYGRTKELTPELKENFIRFSKSLGLPENHIVFPVPIDQCIDGF", "notes": "Purified with C-terminal Strep-tag II; also called hNGAL mutein; Lcn2 mutein; not shown: C-terminal Strep-tag II encoded by phNGAL98"}, "B2": {"name": "lipocalin mutein of SEQ ID NO: 12 (designed binder)", "chain": "QDSTSDLIPAPPLSKVPLQQNFQDNQFHGKWYVVGLAGNEVLREDKDPMKMWATIYELKEDKSYNVTIVMFLAEECEYLFQTFVPGSQPGEFTLGDIKSSPGRTSGLVRVVSTNYNQHAMVFFKVVWQNREVFWITLYGRTKELTSELKKNFIRFSKSLGLPENHIVFPVPIDQCIDG", "notes": "as for B1"}, "B3": {"name": "lipocalin mutein of SEQ ID NO: 9 (designed binder)", "chain": "B2 chain with F71S, E74K, E75K, E147G, K150E", "notes": "as for B1"}, "B4": {"name": "lipocalin mutein of SEQ ID NO: 11 (designed binder)", "chain": "B2 chain with V41I, E74K, E75K, E147G, K150E", "notes": "as for B1"}, "B5": {"name": "lipocalin mutein of SEQ ID NO: 8 (designed binder)", "chain": "B2 chain with F71P, E75K, D96G, S100G, I135V, K150E", "notes": "as for B1"}, "B6": {"name": "lipocalin mutein of SEQ ID NO: 1 (designed binder)", "chain": "B2 chain with K59E, E74K, E75K, V125T, K150E", "notes": "also called hNGAL mutein; Lcn2 mutein; not shown: C-terminal Strep-tag II encoded by phNGAL98"}, "B7": {"name": "lipocalin mutein of SEQ ID NO: 3 (designed binder)", "chain": "QDSTSDLIPAPPLSKVPLQQNFQDNQFHGKWYVVGVAGNGLLREDKDPLKMHATIYELKEDKSYNVTRVLFVRKKCRYYISTFVPGSQPGEFTLGRIKSEPGRTSFLVRVVSTNYNQHAMVFFKMVWQNREVFWITLYGRTKELTSELKENFIRFSKSLGLPENHIVFPVPIDQCIDG", "notes": "as for B1"}, "B8": {"name": "lipocalin mutein of SEQ ID NO: 7 (designed binder)", "chain": "QDSTSDLIPAPPLSKVPLQQNFQDNQFHGKWYVVGLAGNRVLREDKDPQKMFATIYELKEDKSYNVTGVDFRTKKCLYSIGTFVPGSQPGEFTLGVIKSQPGWTSYLVRVVSTNYNQHAMVFFKTVWQNREVFWITLYGRTKELTSELKENFIRFSKSLGLPENHIVFPVPIDQCIDG", "notes": "as for B1"}, "B9": {"name": "lipocalin mutein of SEQ ID NO: 2 (designed binder)", "chain": "QDSTSDLIPAPPLSKVPLQQNFQDNQFHGKWYVVGTAGNSILREDKDPQKMWATIYELKEDKSYNVTRVFFEGKKCRYVIETFVPGSQPGEFTLGKIKSAPGGTSILVRVVSTNYNQHAMVFFKVVWQNRELFWITLYGRTKELTSELKENFIRFSKSLGLPENHIVFPVPIDQCIDG", "notes": "as for B1"}, "B10": {"name": "lipocalin mutein of SEQ ID NO: 5 (designed binder)", "chain": "QDSTSDLIPAPPLSKVPLQQNFQDNQFHGKWYVVGAAGNSLLREDKDPMKMWATIYELKEDKSYNVTRVNFGGKKCSYLIETFVPGSQPGEFTLGSIKSRPGATSVLVRVVSTNYNQHAMVFFKLVTQNREVFWITLYGRTKELTSELKENFIRFSKSLGLPENHIVFPVPIDQCIDG", "notes": "as for B1"}, "B11": {"name": "lipocalin mutein of SEQ ID NO: 4 (designed binder)", "chain": "QDSTSDLIPAPPLSKVPLQQNFQDNQFHGKWYVVGVAGNEMLREDKDPLKMLATIYELKEDKSYNVTRVMFEYKKCVYLIETFVPGSQPGEFTLGTIKSVPGLTSGLVRVVSTNYNQHAMVFFKRVWQNREVFWITLYGRTKELTSELKENFIRFSKSLGLPENHIVFPVPIDQCIDG", "notes": "as for B1"}, "B12": {"name": "lipocalin mutein of SEQ ID NO: 6 (designed binder)", "chain": "QDSTSDLIPAPPLSKVPLQQNFQDNQFHGKWYVVGLAGNEILREDKDPLKMWATIYELKEDKSYNVTRVQFGEKKCGYGIETFVPGSQPGEFTLGSIKSVPGGTSRLVRVVSTNYNQHAMVFFKFVWQNREVFWITLYGRTKELTSELKENFIRFSKSLGLPENHIVFPVPIDQCIDG", "notes": "as for B1"}},
  "note": "Changes are numbered by the printed parent chain.",
  "data": [
    {"target": "T1, C-terminal biotinylated human Hepcidin-25 (human, not fully specified; biotinylated via a Lysine residue coupled to the C-terminus via a Mini-PEG linker)", "T1 construct": "Captured on plates via Neutravidin in the ELISAs; also called C-terminal biotinylated hHepcidin; C-terminal biotinylated hepcidin (Bachem AG)", "T1 peptide": "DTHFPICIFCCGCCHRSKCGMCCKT", "assay": "HT-screening ELISA, reverse ELISA and competition ELISA; T7- and Strep-tagged clone in crude lysate", "procedure": "Lipocalin muteins were selected in a HT-screening ELISA. Therein, NGAL variants equipped with a T7 detection tag (Novagen) as well as a Strep-tag II affinity tag (IBA) were soluble expressed in a 96 well microtiter plate using the E. coli strain TG1/F with phNGAL 101. This vector corresponds to phNGAL 98 (SEQ ID NO: 31) with an N-terminal T7 tag consisting of 11 amino acids ([…]) (SEQ ID NO: 34, see also FIG. 4B). Lipocalin mutein expression was induced overnight at 22° C. at 700 rpm with anhydrotetracycline (0.2 μg/ml) at an OD₅₅₀ of 0.6. […] To minimize non-specific binding in the subsequent ELISA screen, the crude cell lysates were supplemented with 2% w/v BSA and 0.1% v/v Tween 20 and tested in ELISA for binding to human Hepcidin-25. Therefore, soluble C-terminal biotinylated human Hepcidin-25 was immobilized on wells of black Fluotrac 600 ELISA plates (Greiner; 384 well) with 1 μg/ml via capturing by Neutravidin (5 μg/ml, Thermo Scientific). Neutravidin, Streptavidin, 5 μg/ml each, and 3% milk were used as negative control. Plates were blocked with PBST/0.1 containing 2% w/v BSA, and subsequently incubated with the bacterial cell extract for 1 h at room temperature plates were washed five times and bound Lipocalin muteins were detected via an anti-T7 monoclonal antibody-HRP conjugate (Novagen), diluted 1:10.000 in PBST/O 1. Therefore, QuantaBlu™ (Pierce; 1:2 diluted in PBS/T 0.1%) was used as fluorogenic HRP substrate. After 45 min of signal development at room temperature fluorescence was excited at a wavelength of 320 nm (±12.5 nm) and measured at 430 nm (±17.5 nm) in a GENiosPlus plate reader (Tecan).\nIn a reverse ELISA approach soluble expressed muteins from the crude cell lysate were captured in ELISA plates via their T7-tag following incubation with varying amounts of C-terminal biotinylated hHepcidin to reach target-limiting conditions in order to differentiate the muteins by their affinity. Binding of the target was detected via Extravidin-HRP conjugate (Sigma). One could compete for mutein binding by the addition of 100 nM non-biotinylated human Hepcidin-25 indicating, that the muteins bind the non-modified hHepcidin-25 as well.", "values": [
      {"binder": "B1", "binding result": "binds"},
      {"binder": "B2", "binding result": "binds"},
      {"binder": "B3", "binding result": "binds"},
      {"binder": "B4", "binding result": "binds"},
      {"binder": "B5", "binding result": "binds"}
    ]},
    {"target": "T2, synthetic non-modified human Hepcidin-25 (human, not fully specified)", "T2 construct": "also called hHepcidin-25; non-biotinylated human Hepcidin-25", "T2 peptide": "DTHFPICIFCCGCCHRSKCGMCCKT", "assay": "SPR (Biacore T100), mutein amine-coupled to CM5 chip, hepcidin as analyte, 1:1 model", "procedure": "Lipocalin muteins were immobilized to a CM5 sensor chip using standard amine chemistry. The surface of the chip was activated using EDC and NHS. Subsequently, 20 μg/mL lipocalin mutein solutions in 10 mM sodium acetate pH 4.5 (60 μg/mL in 10 mM sodium acetate pH 4.0 for peglyted lipocalin mutein) were applied at a flow rate of 5 μL/min until a surface density of 500-700 resonance units (RU) for non-modified lipocalin muteins and of approximately 1600 RU for pegylated lipocalin with the sequence of SEQ ID NO: 13 was achieved. Residual activated groups were saturated with ethanolamine. The reference channels were treated with EDC/NHS following ethanolamine (blank immobilization). All reagents and materials were purchased from GE Healthcare.\nSerial dilutions of human and cynomolgus Hepcidin-25 in running buffer (HBS-EP+, GE Healthcare, BR-1006-68) were applied to the prepared surface. The following parameters were used for the binding assay, contact time 60 s, dissociation time 180-360 s, flow rate 30 μL/min. All measurements were performed on a Biacore T100 instrument (GE Healthcare) at 25° C.\nData were evaluated with Biacore T100 Evaluation software (V 2.0.1). Double referencing was used. The 1:1 Binding model (Langmuir) was used to fit the raw data.", "values": [
      {"binder": "B6", "binding result": "binds"},
      {"binder": "B5", "binding result": "binds"}
    ]},
    {"target": "T1, C-terminal biotinylated human …", "assay": "direct ELISA, hepcidin captured via Neutravidin", "procedure": "A “direct” ELISA was performed to verify the binding affinity and specificity of the selected Lcn2 muteins. Therefore, a constant concentration of 1 μg/ml C-terminal biotinylated hepcidin (Bachem AG, CH) was captured on the surface of a polystyrol plate (Greiner, GE) via Neutravidin (Thermo Scientific, 5 μg/ml). Two step dilution series of purified Lcn2 muteins were incubated with the captured hepcidin […] at room temperature and detected either via the Strep-tag II using a rabbit anti-strep-tag II polyconal antibody (GenScript, USA) or by using a scaffold-specific polyclonal rabbit antibody. In both cases an anti rabbit IgG-HRP conjugate (Abcam, UK) was employed as secondary detection antibody.", "values": [
      {"binder": "B7", "binding result": "binds"},
      {"binder": "B8", "binding result": "binds"},
      {"binder": "B9", "binding result": "binds"},
      {"binder": "B10", "binding result": "binds"},
      {"binder": "B11", "binding result": "binds"},
      {"binder": "B12", "binding result": "binds"},
      {"binder": "B6", "binding result": "binds"}
    ]}
  ]
}
